Source: patent publication US20230382991A1
Values joined by “and” are separate entries in the source; they are usually repeats but may differ in a detail not shown here. Equal entries are not always repeated.

Assays:
[1] = target: cynomolgus macaque LILRB1.2 expressed on stably transduced HEK293T cells (cynomolgus macaque)
[2] = target: cynomolgus macaque LILRB2.1 expressed on stably transduced HEK293T cells (cynomolgus macaque)
[3] = target: cynomolgus macaque LILRB4 expressed on stably transduced HEK293T cells (cynomolgus macaque)

In the case of “cynomolgus macaque Mafa-A1*063 SIV gag GW9 (…)-APC tetramer (peptide-MHC)”, the % cells in the tetramer+ gate [1] is reported as 51.7% and 53%, the % cells in the tetramer+ gate [2] is reported as 73.5% and 71% and the % cells in the tetramer+ gate [3] is reported as 0.13%.
